Measurements taken from the DeepSol protein solubility set.

Experiment: soluble on expression in E. coli; label from the status in PepcDB or PDB records

Row | Sequence | soluble on expression in E. coli
1 | MGSDKIHHHHHHMGMDFKVPDYMQELALASGQGLDQLSAVLARILDHPVLISSSAYKLFSSSSHYDFESFHIYSNQPRTGSDALFTCHILTDTMQSLALGRVVAPFGRTLGYIFMLTDDDSPDPTHFKPLLDYAASLCAVHLQNRLELKQEQSKFKNAFLYDLIYGNLKRNDEIIATGELWGWNFRRPHTIMVFLLPEPDFYTTEWHLMDVLSRIVEQNFIEIYYKNPAVILRQNELILFVPMQTDKPAVQTEELLVFADKILSQVQNTELKGLAACGVGQAYSEATVLFRSYQEAKVALEMGKLLGIPIPFFRDLGLERILYKHDLQDLKEYYLHVLGELHKQDDQDSSLVTILESFAENQFDVGKTAKALFMHPNTLRYRLNKIENILGKPLTDNHARLDIMAAFKIKRLHTIETLLA | not soluble
2 | MSLPQPKKDKPDTPLRSDAQRNRERILAVATEELTHCANAPLSAIAKKAGVGQGTFYRNFPNREALVLEIYRYGMQQVAEAAPEMLATGEPDLALRQWMDRLAEFAMTKAGLADAIRLVTSAPGAPEKPRPTPLEDAAELLLRANHEAGTIRPGVTGDDFFLVLGGLWLIDPGENWQPRVTRFLDLVMDGLRAGAPGREGHHHHHH | soluble
3 | MAHHHHHHMKGNKGANIAYPDKYHKVTEFFDREYGDLETCTKLNDCQKLLFYALRQQVEHGPCTSGAPFIWQVRERAKHDAWKQLGAMTKFEAMVHFVTHLEECIGGNVDWGEKLRDLNGMRDQQRVGVENGTGESNANEQTERGVSEAHWDADVQAHLQPSAENIEYLAREVMRLRGELQQVRPNRVVPTPIVVPPRKPIDYVSTKNIVPPARTLATVATRTALLNAQTTNNLVERQPQGWGEWFGL | not soluble
4 | MSLDTHSLRFSKEGTFQITVFSDLHFAEYENTAQGAKQDSRTAGVVRKVLQHEASTQLVVLNGDLISGYGTTSDNATRYLDQVLAPIQALGLPWAVTYGNHDNERFARSRELLDYESRTYPNYSLTRNMGPRDLEAGVSNYYLEVFAAETSHVPEMLLWFFDSRGGAQPHDWVHDSVVQWFIDTNANLTNKYNKAVPSIAFFHIPITATYDFQLYPGVDTSREPGINGEKVWWQGRGYDGKTGHDLKFMAALSATEGMLATFSGHDHDNDWCFKWKSPSATSSSAGLNVCYGRHTGYGGYGGLARGARQILLKQSTIKDEVATWIRLEDGLVPENVTLNATYGQDEEGHHHHHH | not soluble
5 | MGSDKIHHHHHHMKSHIGLIGLAVMGQNLALNIARKGYKVSVYNRTAQRTEEFVKNRVTNEEIEPHYDIESFVKSLERPRKIILMVKAGKPVDDTISQLLPHLEPGDLIIDGGNSHYMDTERRFKELSEKGILFLGMGVSGGEYGALHGPSLMPGGSREAYNLVEEILLEIAAKTEDGPCCTYVGERSAGHFVKMVHNGIEYAIMQAIAEVYHIMRDVLSLSSEEMSSIFEEWNRGELSSFLVEITYKILRKKDEETGKPMVDVILDKAEQKGTGKWTSQAALDLGIPTPSINLAVVERVISHFKDIRTRLSKLYNKRRSATQGSEEFLRDLRNSLFFAMFMAFSQGMWLIAEASKEFGYGVSLSEVLRIWKGGCIIRAKLIDTLRRYISNENAYLLENEEVMNLLKGKIDSLKNILKASIENEIPVPVLSSSYNYFMSLTEERLPANLIQAQRDFFGAHTFERVDREGVFHINWEEGEIG | not soluble
6 | MKRISYIEDFEQWESGFSFYNPVKVRFGEVDMFGHVNNVVAFTYFEEARIALFKELGFMQEWTHASSETMIVVADLQCNFIKQIYFDEQLKVYVKAGSVGNSSLDLHYMVKNAEGEICLVGRGMMVQASKKTGRGEPWPEEWKKKLLQ | soluble
7 | MGSDKIHHHHHHMRLNRETIKDRAAWEKIGVRPPYFDLDEVEKNTKEQPKWVHFGGGNIFRGFVAAVLQNLLEEGKEDTGINVIELFDYEVIDKVYKPYDNLSIAVTIKPDGDFEKRIIASVMEALKGDPSHPDWERAKEIFRNPSLQLASLTITEKGYNIEDQAGNLFPQVMEDMKNGPVSPQTSMGKVAALLYERFKAGRLPIALLSLDNFSRNGEKLYSSVKRISEEWVKSGLVEKDFIDYLEKDVAFPWSMIDKIVPGPSEFIKEHLEKLGIEGMEIFVTSKRTHIAPFVNMEWAQYLVIEDSFPNGRPKLEGADRNVFLTDRETVEKAERMKVTTCLNPLHTALAIFGCLLGYKKIADEMKDPLLKKLVEGVGEEGIKVVVDPGIINPREFLNEVINIRLPNPYLPDTPQRIATDTSQKMPIRFGETIKAYHERPDLDPRNLKYIPLVIAGWCRYLMGIDDEGREMQLSPDPLLENLRSYVSKIKFGDPESTDDHLKPILSSQQLFRVNLYEVGLGEKIEELFKKMITGPRAVRKTLEEVVGREDG | not soluble
8 | MGHHHHHHSHMYAEERRRQIASLTAVEGRVNVTELAGRFDVTAETIRRDLAVLDREGIVHRVHGGAVATQSFQTTELSLDTRFRSASSAKYSIAKAAMQFLPAEHGGLFLDAGTTVTALADLISEHPSSKQWSIVTNCLPIALNLANAGLDDVQLLGGSVRAITQAVVGDTALRTLALMRADVVFIGTNALTLDHGLSTADSQEAAMKSAMITNAHKVVVLCDSTKMGTDYLVSFGAISDIDVVVTDAGAPASFVEQLRERDVEVVIAE | soluble
9 | MGSDKIHHHHHHMQLTSENYYSQEANKEYMSVSGYKDFAGTYGKMPCEFYGMEKLNGRWEDEKSTALLVGSYVDSYFEGSLDQFKKDNPEIFTQKGELKANFKQAEEIIARIERDEYFMKYMSGQKQVIMTGELFGAKWKIKMDSYIPGVAIVDLKVMASITDLKWVKDIGYLDFVRYWGYDIQGAVYQEIVRQNTGEKLPFFIAGATKQTEPDIRIIHVTDNYLQEALHMVEMNMPRILRVKNGEVEPDRCELCDCCRHNRVLKKPISIMDLTAGI | not soluble
10 | MHHHHHHSSGVDLGTENLYFQSMASGANFEYIIAEKRGKNNTVGLIQLNRPKALNALCDGLIDELNQALKIFEEDPAVGAIVLTGGDKAFAAGADIKEMQNLSFQDCYSSKFLKHWDHLTQVKKPVIAAVNGYAFGGGCELAMMCDIIYAGEKAQFAQPEILIGTIPGAGGTQRLTRAVGKSLAMEMVLTGDRISAQDAKQAGLVSKICPVETLVEEAIQCAEKIASNSKIVVAMAKESVNAAFEMTLTEGSKLEKKLFYSTFATDDRKEGMTAFVEKRKANFKDQ | soluble
11 | MTTFPTLDPELAAALTMLPKVDFADLPNARATYDALIGAMLADLSFDGVSLRELSAPGLDGDPEVKIRFVTPDNTAGPVPVLLWIHGGGFAIGTAESSDPFCVEVARELGFAVANVEYRLAPETTFPGPVNDCYAALLYIHAHAEELGIDPSRIAVGGQSAGGGLAAGTVLKARDEGVVPVAFQFLEIPELDDRLETVSMTNFVDTPLWHRPNAILSWKYYLGESYSGPEDPDVSIYAAPSRATDLTGLPPTYLSTMELDPLRDEGIEYALRLLQAGVSVELHSFPGTFHGSALVATAAVSERGAAEALTAIRRGLRSLSPVS | soluble
12 | MGSDKIHHHHHHMMIMLDPFSEKAKELLKGFGSINDFMDAIPKIVSVDDVIERIRVVKNEKLIDKFLDQDNVMDLAQFYALLGALSYSPYGIELELVKKANLIIYSERLKRKKEIKPEEISIDVSTAIEFPTEDVRKIERVYGKIPEYTMKISDFLDLVPDEKLANYYIYEGRVYLKREDLIRIWSKAFERNVERGVNMLYEIRDELPEFYRKVLGEIQAFAEEEFGRKFGEIQGGKLRPEFFPPCIKNALKGVPQGIRNYAITVLLTSFLSYARICPNPPRRNVRVKDCIKDIRVITEEILPIIIEAANRCSPPLFEDQPNEIKNIWYHLGFGYTANPSLEDSGNSTWYFPPNCEKIRANAPQLCTPDKHCKYIRNPLTYYLRRLYLEGRRNAPKRGNKRGKKELLHQ | not soluble
13 | MGSDKIHHHHHHMGPVGYTTLDTAVVERRLGVERLGYRVVGEGYVYRHKYKAGGQRVSTLIGRPEPLDPARVLRVLSAGAYNVVLISPLHGEDDGGLASYIHNNFSAITAVDLQGYYRGYASVWTPPTARIGSLAHISSDDASDPPREPMANIIVYTRGEAGGEVLSPSGSLTIPPPPKLVEDPTGAGDIFTMVFAIMLFRGAPPGPAAEEAAAKTPEILESIRGDEGFQYSVPHSPSEAFWI | not soluble
